For the assay, the target named is Coxsackie B–Adenovirus Receptor (CAR), human, of 293 cells (human (endogenous in 293)) (UniProt P78310). Put plainly: ELISA; virus attachment assay: cells on 96-well plates, biotinylated AdV5 (MOI=100 virus particles per cell) for 90 min on ice (4 °C) or at 37 °C, washed, fixed with 3 % paraformaldehyde, streptavidin-HRP; anti-CAR antibodies blocked 95–98 % of the signal (data not shown).

Experimental findings from publication PMC5078831 are described below.

UniProt P78310, sequence (P78310 20-365): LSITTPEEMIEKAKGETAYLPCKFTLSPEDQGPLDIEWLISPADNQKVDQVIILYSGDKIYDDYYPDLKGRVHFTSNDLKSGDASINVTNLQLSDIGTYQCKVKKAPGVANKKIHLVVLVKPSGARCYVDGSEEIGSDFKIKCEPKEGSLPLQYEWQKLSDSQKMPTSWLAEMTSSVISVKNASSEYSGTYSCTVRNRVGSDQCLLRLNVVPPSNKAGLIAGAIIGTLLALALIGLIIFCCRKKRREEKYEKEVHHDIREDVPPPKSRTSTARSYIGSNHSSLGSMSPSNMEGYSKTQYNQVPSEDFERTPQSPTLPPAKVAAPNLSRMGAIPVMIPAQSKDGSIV

Regarding “biotinylated AdV5-GFP virus particles (complex)”, the percent of the virus attached to cells is over 60%.
